# From PMC10789646, “Uncovering the non-histone interactome of the BRPF1 bromodomain using site-specific azide-acetyllysine photochemistry” (The Journal of Biological Chemistry, 2023)
# Where no end group is shown, it is not given here.
# B1: WT BRPF1 bromodomain (domain or fragment)
# chain: MEMQLTPFLILLRKTLEQLQEKDTGNIFSEPVPLSEVPDYLDHIKKPMDFFTMKQNLEAYRYLNFDDFEEDFNLIVSNCLKYNAKDTIFYRAAVRLREQGGAVLRQARRQAEKMG
# notes: bromodomain of bromodomain-PHD finger protein 1 (BRPF1); vector pNIC28-Bsa4; also called bromodomain-PHD finger protein 1 bromodomain; source: E. coli One Shot BL21 star (DE3), purified (Ni-NTA, Superdex-75)
# Tests used:
# [1] = molecular target: histone H4K5acK8ac peptide 2 (acetyl-lysine at K5 and K8); experiment: ITC; peptide (1.5 to 1.8 mM, syringe) injected into protein (80 to 100 μM, cell); 15 °C; 50 mM Hepes pH 7.5, 200 mM NaCl, 5% glycerol; single-binding site model; settings: both partners purified
# [2] = molecular target: B1; experiment: as above; settings: both partners purified
Kd [1],Kd [2],Binder
24.6 ± 3.1 µM,,B1
21.6 ± 2.1 µM,,"BRPF1 bromodomain N651AzF (domain or fragment, 4-azido-L-phenylalanine (AzF) at 651, bromodomain of BRPF1 with the unnatural amino acid 4-azido-L-phenylalanine in place of N651; also called BRPF1-N651AzF; engineered BRPF1 bromodomain; source: E. coli One Shot BL21 Star (DE3) with pEVOL-pAzF (amber suppression), purified (Ni-NTA, Superdex-75); not shown: 6xHis, N-terminal, kept) MEMQLTPFLILLRKTLEQLQEKDTGFIFSEPVPLSEVPDYLDHIKKPMDFFTMKQNLEAYRYLNFDDFEEDFNLIVSNCLKYNAKDTIFYRAAVRLREQGGAVLRQARRQAEKMG"
,250 ± 10.2 µM,"RVGLVAK(Ac)GLLLK(Ac)G (holds the KGLLLK (100-105) motif; also called RVGLVAKacGLLLKacG 8; source: synthetic peptide (GL Biochem Ltd and S. Biochem Ltd, HPLC purified)) [diacetylated ILF3 peptide 8]"
